Source: the supplement of paper PMC5998384

Experiments:
HeLa Kyoto [1] = test: thermal stability score vs G1/S (z-score of summed log2 fold changes over temperatures); higher = more thermally stable than in G1/S
HeLa Kyoto [2] = test: solubility in G1/S (NP-40 vs SDS abundance) (log2 ratio); higher = more soluble; conditions: cell cycle stage: G1/S
HeLa Kyoto [3] = test: solubility change mitosis vs G1/S (difference of NP-40 vs SDS log2 ratios) (log2 ratio difference); higher = more soluble in mitosis
[4] = cell cycle stage: early G1 (4.5 h after nocodazole release)
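Throughout, for solubility change mitosis vs G1/S (difference of NP-40 vs SDS log2 ratios): synchronized HeLa Kyoto cells (double thymidine block for G1/S, nocodazole release for mitosis), protein amounts in NP-40 versus SDS lysates quantified by mass spectrometry, three biological replicates.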
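Throughout, for solubility in G1/S (NP-40 vs SDS abundance): HeLa Kyoto cells arrested at G1/S by double thymidine block, proteins quantified by TMT10plex mass spectrometry in mild NP-40 versus SDS extracts, three biological replicates.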
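Throughout, for thermal stability score vs G1/S (z-score of summed log2 fold changes over temperatures): synchronized HeLa Kyoto cells, proteins quantified by TMT10plex mass spectrometry, three biological replicates, mitosis taken 0.5 h after nocodazole release, G1/S directly after double thymidine block.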

Sequence | thermal stability score (HeLa Kyoto [1]; [4]) | thermal stability score (HeLa Kyoto [1]; cell cycle stage: mitosis) | solubility in G1/S (log2) (HeLa Kyoto [2]) | solubility change mitosis (log2) (HeLa Kyoto [3])
MSGPLEGADGGGDPRPGESFCPGGVPSPGPPQHRPCPGPSLADDTDANSNGSSGNESNGHESRGASQRSSHSSSSGNGKDSALLETTESSKSTNSQSPSPPSSSIAYSLLSASSEQDNPSTSGCSSEQSARARTQKELMTALRELKLRLPPERRGKGRSGTLATLQYALACVKQVQANQEYYQQWSLEEGEPCSMDMSTYTLEELEHITSEYTLQNQDTFSVAVSFLTGRIVYISEQAAVLLRCKRDVFRGTRFSELLAPQDVGVFYGSTAPSRLPTWGTGASAGSGLRDFTQEKSVFCRIRGGPDRDPGPRYQPFRLTPYVTKIRVSDGAPAQPCCLLIAERIHSGYEAPRIPPDKRIFTTRHTPSCLFQDVDERAAPLLGYLPQDLLGAPVLLFLHPEDRPLMLAIHKKILQLAGQPFDHSPIRFCARNGEYVTMDTSWAGFVHPWSRKVAFVLGRHKVRTAPLNEDVFTPPAPSPAPSLDTDIQELSEQIHRLLLQPVHSPSPTGLCGVGAVTSPGPLHSPGSSSDSNGGDAEGPGPPAPVTFQQICKDVHLVKHQGQQLFIESRARPQSRPRLPATGTFKAKALPCQSPDPELEAGSAPVQAPLALVPEEAERKEASSCSYQQINCLDSILRYLESCNLPSTTKRKCASSSSYTTSSASDDDRQRTGPVSVGTKKDPPSAALSGEGATPRKEPVVGGTLSPLALANKAESVVSVTSQCSFSSTIVHVGDKKPPESDIIMMEDLPGLAPGPAPSPAPSPTVAPDPAPDAYRPVGLTKAVLSLHTQKEEQAFLSRFRDLGRLRGLDSSSTAPSALGERGCHHGPAPPSRRHHCRSKAKRSRHHQNPRAEAPCYVSHPSPVPPSTPWPTPPATTPFPAVVQPYPLPVFSPRGGPQPLPPAPTSVPPAAFPAPLVTPMVALVLPNYLFPTPSSYPYGALQTPAEGPPTPASHSPSPSLPALAPSPPHRPDSPLFNSRCSSPLQLNLLQLEELPRAEGAAVAGGPGSSAGPPPPSAEAAEPEARLAEVTESSNQDALSGSSDLLELLLQEDSRSGTGSAASGSLGSGLGSGSGSGSHEGGSTSASITRSSQSSHTSKYFGSIDSSEAEAGAARGGAEPGDQVIKYVLQDPIWLLMANADQRVMMTYQVPSRDMTSVLKQDRERLRAMQKQQPRFSEDQRRELGAVHSWVRKGQLPRALDVMACVDCGSSTQDPGHPDDPLFSELDGLGLEPMEEGGGEQGSSGGGSGEGEGCEEAQGGAKASSSQDLAMEEEEEGRSSSSPALPTAGNCTS [PER1] | 0.55 | 0.377 | 0.0364 | -0.183
MSKISEAVKRARAAFSSGRTRPLQFRIQQLEALQRLIQEQEQELVGALAADLHKNEWNAYYEEVVYVLEEIEYMIQKLPEWAADEPVEKTPQTQQDELYIHSEPLGVVLVIGTWNYPFNLTIQPMVGAIAAGNSVVLKPSELSENMASLLATIIPQYLDKDLYPVINGGVPETTELLKERFDHILYTGSTGVGKIIMTAAAKHLTPVTLELGGKSPCYVDKNCDLDVACRRIAWGKFMNSGQTCVAPDYILCDPSIQNQIVEKLKKSLKEFYGEDAKKSRDYGRIISARHFQRVMGLIEGQKVAYGGTGDAATRYIAPTILTDVDPQSPVMQEEIFGPVLPIVCVRSLEEAIQFINQREKPLALYMFSSNDKVIKKMIAETSSGGVAANDVIVHITLHSLPFGGVGNSGMGSYHGKKSFETFSHRRSCLVRPLMNDEGLKVRYPPSPAKMTQH [ALDH3A1] | 0.258 | -0.475 | 0.316 | -0.153
MSRPVRNRKVVDYSQFQESDDADEDYGRDSGPPTKKIRSSPREAKNKRRSGKNSQEDSEDSEDKDVKTKKDDSHSAEDSEDEKEDHKNVRQQRQAASKAASKQREMLMEDVGSEEEQEEEDEAPFQEKDSGSDEDFLMEDDDDSDYGSSKKKNKKMVKKSKPERKEKKMPKPRLKATVTPSPVKGKGKVGRPTASKASKEKTPSPKEEDEEPESPPEKKTSTSPPPEKSGDEGSEDEAPSGED [NUCKS1] | -0.14 | 1.15 | 0.444 | 0.307
MSSILPFTPPIVKRLLGWKKGEQNGQEEKWCEKAVKSLVKKLKKTGQLDELEKAITTQNVNTKCITIPRSLDGRLQVSHRKGLPHVIYCRLWRWPDLHSHHELRAMELCEFAFNMKKDEVCVNPYHYQRVETPVLPPVLVPRHTEIPAEFPPLDDYSHSIPENTNFPAGIEPQSNIPETPPPGYLSEDGETSDHQMNHSMDAGSPNLSPNPMSPAHNNLDLQPVTYCEPAFWCSISYYELNQRVGETFHASQPSMTVDGFTDPSNSERFCLGLLSNVNRNAAVELTRRHIGRGVRLYYIGGEVFAECLSDSAIFVQSPNCNQRYGWHPATVCKIPPGCNLKIFNNQEFAALLAQSVNQGFEAVYQLTRMCTIRMSFVKGWGAEYRRQTVTSTPCWIELHLNGPLQWLDKVLTQMGSPSIRCSSVS [SMAD3] | -0.574 | -1.15 | -0.184 | 0.0397
MSSMWSEYTIGGVKIYFPYKAYPSQLAMMNSILRGLNSKQHCLLESPTGSGKSLALLCSALAWQQSLSGKPADEGVSEKAEVQLSCCCACHSKDFTNNDMNQGTSRHFNYPSTPPSERNGTSSTCQDSPEKTTLAAKLSAKKQASIYRDENDDFQVEKKRIRPLETTQQIRKRHCFGTEVHNLDAKVDSGKTVKLNSPLEKINSFSPQKPPGHCSRCCCSTKQGNSQESSNTIKKDHTGKSKIPKIYFGTRTHKQIAQITRELRRTAYSGVPMTILSSRDHTCVHPEVVGNFNRNEKCMELLDGKNGKSCYFYHGVHKISDQHTLQTFQGMCKAWDIEELVSLGKKLKACPYYTARELIQDADIIFCPYNYLLDAQIRESMDLNLKEQVVILDEAHNIEDCARESASYSVTEVQLRFARDELDSMVNNNIRKKDHEPLRAVCCSLINWLEANAEYLVERDYESACKIWSGNEMLLTLHKMGITTATFPILQGHFSAVLQKEEKISPIYGKEEAREVPVISASTQIMLKGLFMVLDYLFRQNSRFADDYKIAIQQTYSWTNQIDISDKNGLLVLPKNKKRSRQKTAVHVLNFWCLNPAVAFSDINGKVQTIVLTSGTLSPMKSFSSELGVTFTIQLEANHIIKNSQVWVGTIGSGPKGRNLCATFQNTETFEFQDEVGALLLSVCQTVSQGILCFLPSYKLLEKLKERWLSTGLWHNLELVKTVIVEPQGGEKTNFDELLQVYYDAIKYKGEKDGALLVAVCRGKVSEGLDFSDDNARAVITIGIPFPNVKDLQVELKRQYNDHHSKLRGLLPGRQWYEIQAYRALNQALGRCIRHRNDWGALILVDDRFRNNPSRYISGLSKWVRQQIQHHSTFESALESLAEFSKKHQKVLNVSIKDRTNIQDNESTLEVTSLKYSTSPYLLEAASHLSPENFVEDEAKICVQELQCPKIITKNSPLPSSIISRKEKNDPVFLEEAGKAEKIVISRSTSPTFNKQTKRVSWSSFNSLGQYFTGKIPKATPELGSSENSASSPPRFKTEKMESKTVLPFTDKCESSNLTVNTSFGSCPQSETIISSLKIDATLTRKNHSEHPLCSEEALDPDIELSLVSEEDKQSTSNRDFETEAEDESIYFTPELYDPEDTDEEKNDLAETDRGNRLANNSDCILAKDLFEIRTIKEVDSAREVKAEDCIDTKLNGILHIEESKIDDIDGNVKTTWINELELGKTHEIEIKNFKPSPSKNKGMFPGFK [BRIP1] | 0.36 | 1.88 | -0.0862 | -0.00076
MSYYQRPFSPSAYSLPASLNSSIVMQHGTSLDSTDTYPQHAQSLDGTTSSSIPLYRSSEEEKRVTVIKAPHYPGIGPVDESGIPTAIRTTVDRPKDWYKTMFKQIHMVHKPDDDTDMYNTPYTYNAGLYNPPYSAQSHPAAKTQTYRPLSKSHSDNSPNAFKDASSPVPPPHVPPPVPPLRPRDRSSTEKHDWDPPDRKVDTRKFRSEPRSIFEYEPGKSSILQHERPASLYQSSIDRSLERPMSSASMASDFRKRRKSEPAVGPPRGLGDQSASRTSPGRVDLPGSSTTLTKSFTSSSPSSPSRAKGGDDSKICPSLCSYSGLNGNPSSELDYCSTYRQHLDVPRDSPRAISFKNGWQMARQNAEIWSSTEETVSPKIKSRSCDDLLNDDCDSFPDPKVKSESMGSLLCEEDSKESCPMAWGSPYVPEVRSNGRSRIRHRSARNAPGFLKMYKKMHRINRKDLMNSEVICSVKSRILQYESEQQHKDLLRAWSQCSTEEVPRDMVPTRISEFEKLIQKSKSMPNLGDDMLSPVTLEPPQNGLCPKRRFSIEYLLEEENQSGPPARGRRGCQSNALVPIHIEVTSDEQPRAHVEFSDSDQDGVVSDHSDYIHLEGSSFCSESDFDHFSFTSSESFYGSSHHHHHHHHHHHRHLISSCKGRCPASYTRFTTMLKHERARHENTEEPRRQEMDPGLSKLAFLVSPVPFRRKKNSAPKKQTEKAKCKASVFEALDSALKDICDQIKAEKKRGSLPDNSILHRLISELLPDVPERNSSLRALRRSPLHQPLHPLPPDGAIHCPPYQNDCGRMPRSASFQDVDTANSSCHHQDRGGALQDRESPRSYSSTLTDMGRSAPRERRGTPEKEKLPAKAVYDFKAQTSKELSFKKGDTVYILRKIDQNWYEGEHHGRVGIFPISYVEKLTPPEKAQPARPPPPAQPGEIGEAIAKYNFNADTNVELSLRKGDRVILLKRVDQNWYEGKIPGTNRQGIFPVSYVEVVKKNTKGAEDYPDPPIPHSYSSDRIHSLSSNKPQRPVFTHENIQGGGEPFQALYNYTPRNEDELELRESDVIDVMEKCDDGWFVGTSRRTKFFGTFPGNYVKRL [SORBS2] | -2.13 | 0.899 | -0.773 | 0.819
MTSAAEIKKPPVAPKPKFVVANNKPAPPPIAPKPDIVISSVPQSTKKMKPAIAPKPKVLKTSPVREIGQSPSRKIMLNLEGHKQELAESTDNFNCKYEGNQSNDYISPMCSCSSECIHKLGHRENLCVKQLVLEPLEMNENLENSKIDETLTIKTRSKCDLYGEKAKNQGGVVLKASVLEEELKDALIHQMPPFISAQKHRPTDSPEMNGGCNSNGQFRIEFADLSPSPSSFEKVPDHHSCHLQLPSDECEHFETCQDDSEKSNNCFQSSELEALENGKRSTLISSDGVSKKSEVKDLGPLEIHLVPYTPKFPTPKPRKTRTARLLRQKCVDTPSESTEEPGNSDSSSSCLTENSLKINKISVLHQNVLCKQEQVDKMKLGNKSELNMESNSDAQDLVNSQKAMCNETTSFEKMAPSFDKDSNLSSDSTTVDGSSMSLAVDEGTGFIRCTVSMSLPKQLKLTCNEHLQSGRNLGVSAPQMQKESVIKEENSLRIVPKKPQRHSLPATGVLKKAASEELLEKSSYPSSEEKSSEKSLERNHLQHLCAQNRGVSSSFDMPKRASEKPVWKLPHPILPFSGNPEFLKSVTVSSNSEPSTALTKPRAKSLSAMDVEKCTKPCKDSTKKNSFKKLLSMKLSICFMKSDFQKFWSKSSQLGDTTTGHLSSGEQKGIESDWQGLLVGEEKRSKPIKAYSTENYSLESQKKRKKSRGQTSAANGLRAESLDDQMLSRESSSQAPYKSVTSLCAPEYENIRHYEEIPEYENLPFIMAIRKTQELEWQNSSSMEDADANVYEVEEPYEAPDGQLQLGPRHQHSSSGASQEEQNDLGLGDLPSDEEEIINSSDEDDVSSESSKGEPDPLEDKQDEDNGMKSKVHHIAKEIMSSEKVFVDVLKLLHIDFRDAVAHASRQLGKPVIEDRILNQILYYLPQLYELNRDLLKELEERMLHWTEQQRIADIFVKKGPYLKMYSTYIKEFDKNIALLDEQCKKNPGFAAVVREFEMSPRCANLALKHYLLKPVQRIPQYRLLLTDYLKNLIEDAGDYRDTQDALAVVIEVANHANDTMKQGDNFQKLMQIQYSLNGHHEIVQPGRVFLKEGILMKLSRKVMQPRMFFLFNDALLYTTPVQSGMYKLNNMLSLAGMKVRKPTQEAYQNELKIESVERSFILSASSATERDEWLEAISRAIEEYAKKRITFCPSRSLDEADSENKEEVSPLGSKAPIWIPDTRATMCMICTSEFTLTWRRHHCRACGKIVCQACSSNKYGLDYLKNQPARVCEHCFQELQKLDHQHSPRIGSPGNHKSPSSALSSVLHSIPSGRKQKKIPAALKEVSANTEDSSMSGYLYRSKGNKKPWKHFWFVIKNKVLYTYAASEDVAALESQPLLGFTVIQVKDENSESKVFQLLHKNMLFYVFKAEDAHSAQKWIEAFQEGTIL [FGD6] | -0.173 | 0.213 | -0.0552 | 0.03
